According to patent US20250152742A1, “COMPOSITIONS AND METHODS FOR NEUROLOGICAL DISEASES” (Trames Bio, Inc., priority 2022, published 2025):

System: engineered chimeric receptor SEQ ID NO: 33 and its mutants (human α7-nAChR ligand binding domain / human GlyRα1 ion pore domain) in Lenti-X 293T cells
Experiment: YFP fluorescence quenching anion reporter plate reader assay (percent quench, EC50)
Assay type: cell-based
Settings: for YFP fluorescence quenching using CNL001 (percent quench): receptor named in row; for YFP fluorescence quenching using Varenicline, 3 nM var: ligand Varenicline 3 nM; for YFP fluorescence quenching using Varenicline, 30 nM var: ligand Varenicline 30 nM; for YFP fluorescence quenching using Varenicline, 300 nM var: ligand Varenicline 300 nM; for YFP fluorescence quenching using Varenicline, 500 nM var: ligand Varenicline 500 nM; for YFP fluorescence quenching using Varenicline, 1 uM var: ligand Varenicline 1 uM
Excerpt: To screen these mutant LGICs for those having novel response profiles to ligands, an anion reporter assay was developed to assess the function of the LGICs in a high throughput format. In this assay, cells expressing a YFP reporter whose fluorescence is quenched in the presence of anion are transfected with DNA encoding the channel of interest. Upon exposure to ligand, channels that are activated will flux anion, resulting in a dose-dependent quench of the YFP that can be detected on a plate reader. The greater the quench signal (i.e., the more positive the value), the higher the ligand activity on the receptor is.
Lenti-X 293T cells (LX293T, Clontech) were maintained in DMEM containing 10% FBS and 1% penicillin/streptomycin (Invitrogen). […] Two days before assay, cells were split at a density of 20,000 cells/well in a 96-well tissue culture plate coated with poly-d lysine (Thermo Scientific). The next day, the cells were transiently transfected with 0.1 μg of DNA per well using standard Fugene protocol (Promega). On the day of assay, cells were washed 2 times in 1X extracellular solution (1X ECS: 140 mM NaCl, 5 mM KCl, 1 mM MgCl2, 2 mM CaCl2, 10 mM HEPES, 10 mM glucose, pH 7.2, mOsms 300). After the last wash, 100 μL of 1X ECS was added to the wells and the plate was incubated at 37° C. for 30 min. While incubating the plate, the drugs were diluted to a 2X concentration in 1X ECS-Nal (same components as 1X ECS except the 140 mM NaCl was replaced by 140 mM Nal). The plates were then read on a Flexstation3 (Molecular Devices). Each well, 8 wells at a time, of the plate is read for 2 min using a Flexstation3 (Molecular Devices) as follows: 1) a baseline YFP fluorescence is read for 17 sec, 2) 100 μL of ligand is added, and 3) the changes in YFP fluorescence are then measured every 1.3 sec for 1 minute and 43 seconds. The percent quench is calculated from the average fluorescence of the last 10 seconds of the read divided by the baseline average of the first 15 seconds prior to the ligand addition.
FIGS. 1A-1J provide heat maps of the percent quench of YFP fluorescence following stimulation by various doses of either acetylcholine or the non-native ligand as indicated in the Figures. CODA71 (SEQ ID NO: 33) was used as a control, and CODA75 (SEQ ID NO: 29, a non-responding chimeric engineered receptor) was used as the negative control. Quenching of the fluorescence signal, as indicated by blue shaded cells, indicate the level of engineered receptor activation by the non-native ligand at that concentration.

B1: CODA330: engineered receptor: L131F in SEQ ID NO: 33 (protein)
chain: MRCSPGGVWLALAASLLHVSLQGEFQRKLYKELVKNYNPLERPVANDSQPLTVYFSLSLLQIMDVDEKNQVLTTNIWLQMSWTDHYLQWNVSEYPGVKTVRFPDGQIWKPDILLYNSADERFDATFHTNVFVNSSGHCQYLPPGIFKSSCPMDLKNFPMDVQTCKLKFGSWSYGGWSLDLQMQEADISGYIPNGEWDLVGIPGKRSERFYECCKEPYPDVTFTVTMRRRMGYYLIQMYIPSLLIVILSWISFWINMDAAPARVGLGITTVLTMTTQSSGSRASLPKVSYVKAIDIWMAVCLLFVFSALLEYAAVNFVSRQHKELLRFRRKRRHHKSPMLNLFQEDEAGEGRFNFSAYGMGPACLQAKDGISVKGANNSNTTNPPPAPSKSPEEMRKLFIQRAKKIDKISRIGFPMAFLIFNMFYWIIYKIVRREDVHNQ
modifications: synthetic sequence of chimeric LGIC
1 nM CNL001, first column so headed
  YFP fluorescence quenching using CNL001 (percent quench): 76.289%
1 nM CNL001, second column so headed
  YFP fluorescence quenching using CNL001 (percent quench): 78.896%
1 nM brd (TC-5619/Bradanicline)
  YFP fluorescence quenching using TC-5619/Bradanicline (percent quench): −12.4%
3 nM brd (TC-5619/Bradanicline)
  YFP fluorescence quenching using TC-5619/Bradanicline (percent quench): 25.12%
10 nM CNL001, first column so headed
  YFP fluorescence quenching using CNL001 (percent quench): 79.339%
10 nM CNL001, second column so headed
  YFP fluorescence quenching using CNL001 (percent quench): 80.245%
10 nM brd (TC-5619/Bradanicline)
  YFP fluorescence quenching using TC-5619/Bradanicline (percent quench): 72.19%
30 nM TC-6683
  YFP fluorescence quenching using TC-6683 (percent quench): −22.26%
30 nM brd (TC-5619/Bradanicline)
  YFP fluorescence quenching using TC-5619/Bradanicline (percent quench): 76.35%
50 nM CNL001, first column so headed
  YFP fluorescence quenching using CNL001 (percent quench): 80.831%
50 nM CNL001, second column so headed
  YFP fluorescence quenching using CNL001 (percent quench): 80.605%
50 nM abt (ABT-126)
  YFP fluorescence quenching using ABT-126 (percent quench): −16.22%
100 nM CNL001, first column so headed
  YFP fluorescence quenching using CNL001 (percent quench): 81%
100 nM CNL001, second column so headed
  YFP fluorescence quenching using CNL001 (percent quench): 80.663%
100 nM CNL002
  YFP fluorescence quenching (percent quench): −3.76%
100 nM abt (ABT-126)
  YFP fluorescence quenching using ABT-126 (percent quench): −11.89%
100 nM azd0328
  YFP fluorescence quenching using AZD-0328 (percent quench): 27.56%
100 nM brd (TC-5619/Bradanicline)
  YFP fluorescence quenching using TC-5619/Bradanicline (percent quench): 78.94%
300 nM TC-6683
  YFP fluorescence quenching using TC-6683 (percent quench): −18.89%
300 nM abt (ABT-126)
  YFP fluorescence quenching using ABT-126 (percent quench): 39.23%
300 nM azd0328
  YFP fluorescence quenching using AZD-0328 (percent quench): 73.35%
300 nM brd (TC-5619/Bradanicline)
  YFP fluorescence quenching using TC-5619/Bradanicline (percent quench): 77.06%
1 uM CNL001, first column so headed
  YFP fluorescence quenching using CNL001 (percent quench): 81.293%
1 uM CNL001, second column so headed
  YFP fluorescence quenching using CNL001 (percent quench): 81.428%
1 uM CNL002
  YFP fluorescence quenching (percent quench): 68.51%
1 uM abt (ABT-126)
  YFP fluorescence quenching using ABT-126 (percent quench): 66.5%
1 uM brd (TC-5619/Bradanicline)
  YFP fluorescence quenching using TC-5619/Bradanicline (percent quench): 78.61%
3 uM TC-6683
  YFP fluorescence quenching using TC-6683 (percent quench): −9.45%
10 uM ach (acetylcholine)
  YFP fluorescence quenching (percent quench): 11.07%
30 uM CNL002
  YFP fluorescence quenching (percent quench): 77.77%
30 uM TC-6683
  YFP fluorescence quenching using TC-6683 (percent quench): −9.23%
30 uM azd0328
  YFP fluorescence quenching using AZD-0328 (percent quench): 77.14%
100 uM TC-6683
  YFP fluorescence quenching using TC-6683 (percent quench): −10.75%
100 uM ach (acetylcholine)
  YFP fluorescence quenching (percent quench): 43.34%
1 mM ach (acetylcholine)
  YFP fluorescence quenching (percent quench): 77.52%
3 mM ach (acetylcholine)
  YFP fluorescence quenching (percent quench): 74.89%
Ligand Facinicline 30 nM
  YFP fluorescence quenching using Facinicline, 30 nM fac: 2.9
Ligand Facinicline 300 nM
  YFP fluorescence quenching using Facinicline, 300 nM fac: 74.96
Ligand Facinicline 10 uM
  YFP fluorescence quenching using Facinicline, 10 uM fac: 81.97
Ligand Facinicline 30 uM
  YFP fluorescence quenching using Facinicline, 30 uM fac: 78.31
Ligand TC-6987 1 uM
  YFP fluorescence quenching using TC-6987, 1 uM tc6987: 53.37
Ligand TC-6987 10 uM
  YFP fluorescence quenching using TC-6987, 10 uM tc6987: 74.23
Ligand TC-6987 500 uM
  YFP fluorescence quenching using TC-6987, 500 uM tc6987: 72.25
First column
  YFP fluorescence quenching using Varenicline, 3 nM var: −3.016
  YFP fluorescence quenching using Varenicline, 30 nM var: −0.193
  YFP fluorescence quenching using Varenicline, 300 nM var: 6.915
  YFP fluorescence quenching using Varenicline, 500 nM var: 27.593
  YFP fluorescence quenching using Varenicline, 1 uM var: 67.499
Second column
  YFP fluorescence quenching using Varenicline, 3 nM var: −1.452
  YFP fluorescence quenching using Varenicline, 30 nM var: −1.853
  YFP fluorescence quenching using Varenicline, 300 nM var: 6.513
  YFP fluorescence quenching using Varenicline, 500 nM var: 29.863
  YFP fluorescence quenching using Varenicline, 1 uM var: 65.57
